Experiments:
Test in all cases: ELISA
MERS-CoV S2 subdomain = MERS-CoV S2 subdomain (MERS-CoV, strain ; stand-in …, UniProt K0BRG7)
[1] = molecular target: SARS-CoV-2 S2 subdomain (Sino Biological) (SARS-CoV-2 (Wuhan-Hu-1 reference), UniProt P0DTC2)
HCoV-OC43 S-2P = HCoV-OC43 S-2P (HCoV-OC43 (strain ; numbering …, UniProt P36334, stabilised)

Measured: binding result

B1: antibody 54043-5 (IgG) (antibody, V domains shown)
VH: QVQLQESGPGLVKPSQTLSLTCTVSGDSISNSSYYWSWIRQYPSRRLEWIGYIYYNGRTYYNPSLNSRLSISLDTSKNHFSLKLSSLTAADTALYYCARGFLGYCAGGSCFLNWLDPWGQGTLVTVSS
VL: EIIMTQSPATLSVSPGGRATLSCRASQSVSNNLAWYQQKPGQTPRLLIHGASTRATGIPARFSGSGSGTEFTLTISSLQSEDFAVYYCHQYHNWLLTFGGGTKVEIK
binds: all assays above
